# Where two headings read alike, the source gives them in different places.
# B1: 6F3 humanized (antibody, human IgG1, kappa, V domains shown)
# VH: QVQLVQSGAEVKKPGSSVKVSCKASGYTFTDYEMHWVRQAPGQGLEWIGVIDPETGGITYNQKFKGRATLTADKSTSTAYMELSSLRSEDTAVYYCTRRGARATVYNYVMDYWGQGTLVTVSS
# VL: DIQMTQSPSSLSASVGDRVTITCRASENIHNYLAWYQQKPGKAPKLLVYNAKTLGDGVPSRFSGSGSGTDYTLTISSLQPEDFATYYCQHFWSTPWTFGGGTKVEIKR
# notes: Humanized IgG1, expressed in Freestyle 293 cells; also called h6F3-IgG1; humanized 6F3-hIgG1
# B2: 10B10 humanized (antibody, human IgG1, kappa, V domains shown)
# VH: QVQLQESGPGLVKPSQTLSLTCAVSGYSITSGYSWNWIRQPPGKGLEWMGYIRFDGNNNYNPFLKNRITISRDTSKNQFSLKLSSVTAADTAVYYCARNYGTWGAMDFWGQGTLVTVSS
# VL: DIQLTQSPSSLSASVGDRVTITCKTSQDINKYMAWYQQKPGKAPKLLIYYTSILQPGVPSRFSGSGSGTDYTFTISSLQPEDIATYYCQQYDNLNTFGGGTKVEIKR
# notes: Humanized IgG1, expressed in Freestyle 293 cells; also called h10B10-IgG1; humanized 10B10-hIgG1
# B3: 10B10 murine (antibody, V domains shown)
# VH: DVQLQESGPGLVTPSQSLSLTCSVTGYSITSGYSWNWIRQFPGNKLEWMGYIRFDGNNNYNPFLKNRISITRDTSENQFFLKLNSVTTEDTATYYCARNYGTWGAMDFWGQGTSVTVSS
# VL: DIVLTQSPSSLSASLGGKVTITCKTSQDINKYMAWYQHKPGKGPRLLIYYTSILQPGIPSRFSGSGSGTDYSFSINNLEPEDIATYYCQQYDNLNTFGGGTMLEIK
# notes: Mouse monoclonal antibody purified from hybridoma supernatant on Protein G; also called murine antibody 10B10; anti-CTLA4 hybridoma antibody 10B10
# B4: 6F3 murine (antibody, V domains shown)
# VH: QVKLQESGAELVRPGASVTLSCKASGYTFTDYEMHWMKQTPVHGLEWIGVIDPETGGITYNQKFKGKATLTADKSSSTAYMEFLSLTSEDSAVYYCTRRGARATVYNYVMDYWGQGTSVTVSS
# VL: DIVMTQTTASLSASVGETVTITCRASENIHNYLAWYQQKQGRSPQLLVYNAKTLGDGVPSRFSGSGSGTQYSLKINSLQPEDFGSYYCQHFWSTPWTFGGGTKLEIK
# notes: Mouse monoclonal antibody purified from hybridoma supernatant on Protein G; also called murine antibody 6F3; anti-CTLA4 hybridoma antibody 6F3
# Tests used:
# human CTLA4-hFc [1] = molecular target: T1, human CTLA4-hFc (human); assay: ELISA, humanized antibody on coated human CTLA4
# T1 construct: Extracellular domain of human CTLA4 fused with a human Fc tag; also called hCTLA4-hFc
# [2] = molecular target: T2, human CTLA4 on hCTLA4-293T cells (human, UniProt P16410 36-223); assay: FACS blockage of biotinylated human CD80 binding to hCTLA4-293T cells
# T2 construct: whole, on cells
# T2 sequence (looked up): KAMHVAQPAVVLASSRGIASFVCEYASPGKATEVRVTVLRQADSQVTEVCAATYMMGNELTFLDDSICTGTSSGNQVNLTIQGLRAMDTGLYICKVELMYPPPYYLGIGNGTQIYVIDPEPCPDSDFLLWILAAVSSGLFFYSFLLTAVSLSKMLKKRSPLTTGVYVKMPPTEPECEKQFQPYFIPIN
# Experimental: (§1) Various concentrations of the testing hybridoma antibodies were added to the cell suspension and incubated at 4° C. for 60 minutes in 96 well plates. Biotin-labeled CD80 protein was added into the wells and incubated at 4° C. for 60 minutes. […] Flow cytometric analyses were performed using a FACS Array.
# (§2) After generation and purification of humanized 6F3-hIgG1 and 10B10-hIgG1 antibodies, the binding and specificity of the antibodies were determined using ELISA-based binding and CTLA4/CD80 blockage analyses, as well as FACS-based binding and CTLA4/CD80 blockage analyses. The methods used were similar to those described above in EXAMPLE 4.
# [3] = molecular target: T3, human CTLA4 (construct not stated) (human, UniProt P16410 36-161, limits assumed); assay: SPR (Biacore 3000), capture method as in Example 5, CTLA4 as analyte
# T3 sequence (looked up): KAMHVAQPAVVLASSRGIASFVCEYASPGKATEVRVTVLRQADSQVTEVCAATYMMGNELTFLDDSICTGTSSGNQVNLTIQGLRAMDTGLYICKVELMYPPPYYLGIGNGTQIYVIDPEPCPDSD
# Experimental: (§3) To further characterize the binding characteristics of the antibodies, the hybridoma antibodies were profiled using Biacore (Biacore 3000, GE) to elucidate binding kinetics and calculate equilibrium binding constants. This assay was performed by capture method, using the mouse antibody capture kit (BR-1008-38, GE). After diluting anti-mouse Fc mab to 25 μg/ml in pH 5.0 immobilization buffer, immobilization was conducted with the parameters shown in Table 9 at a flow rate of 5 μl/min. The kinetic runs were done by 1) injecting ligand for typical 0.5-1 min at flow rate of 10 μl/min.; 2) injecting analytes of choice for typical 3 min followed by dissociation in running buffer (1×PBS-P20) for typical 5-10 min at flow rate of 30 μl/min.; and 3) injecting regeneration solution 10 mM Glycine pH 1.7 for typical 1-2 min at flow rate of 10 μl/min.
# The binding kinetics between CTLA4 and humanized CTLA4 antibodies were measured by Biacore3000 as described in Example 5. The dissociation constant, KD, was calculated from the determined rate constants by the relation KD=kd/ka.
# [4] = molecular target: T2, human CTLA4 on hCTLA4-293T cells; assay: FACS on hCTLA4-293T cells, humanized antibody
# Experimental: (§4) The cells were incubated with the indicated antibody (20 μg/ml with the dilution of 1/5) at 4° C. for 1 hour. Cells were washed three times with FACS buffer. A secondary antibody (PE Goat anti-mouse: 1:200; PE mouse anti-human: 1:10) was added to the cells at 100 μl/well, and incubated at 4° C. for 40 min. Cells were washed three times with FACS buffer and analyzed by FACS Array.
# as §2
# human CTLA4-mFc [5] = molecular target: T4, human CTLA4-mFc (human); assay: ELISA blockage of biotinylated CD80-mFc binding to coated human CTLA4-mFc
# T4 construct: Extracellular domain of human CTLA4 fused with mouse Fc; also called hCTLA4-mFc
# Experimental: ELISA based ligand blockage analysis was conducted via blocking biotinylated human CD80-mFc from binding to human CTLA4-mFc. CTLA4-mFc antigen (CrownBio) was suspended in PBS (Hyclone, Cat No: SH30256.01B) buffer (2 μg/ml, 100 μl/well) and coated on the 96 well plate (Costar, Cat No: 9018) 4° C. overnight. Plates were washed 3 times using washing buffer: PBS+0.05% Tween 20 (Sigma, Cat No: P1379). 200 μl of blocking buffer (PBS+1% BSA (Roche, Cat No: 738328)) was added to each well, incubated at 37° C. for 1 hour, and washed 3 times. Various concentrations (suitable dilutions of hybridoma supernatant in PBS) of the anti-CTLA4 antibodies were added to the wells (100 μl/well) and incubated at 37° C. for 1 hour. Ligand was added (0.1 μg/ml CD80-mFc-biotin, 100 μl/well), incubated at 37° C. for 2 hours, and washed 3 times. […] The colorimetric signals were developed and read at 450 nm using an Auto Plate SpectraMax Plus (Supplier: Molecular Devices; Model: MNR0643; Software: SoftMax Pro v5.4).
# After generation and purification of humanized 6F3-hIgG1 and 10B10-hIgG1 antibodies, the binding and specificity of the antibodies were determined using ELISA-based binding and CTLA4/CD80 blockage analyses, as well as FACS-based binding and CTLA4/CD80 blockage analyses. […]
# human CTLA4-hFc [6] = molecular target: T1, human CTLA4-hFc; assay: ELISA, purified murine antibody on coated human CTLA4-hFc
# Experimental: ELISA binding analysis was conducted using human CTLA4-hFc. 96-well plates (Costar, Cat No: 9018) were coated with 100 μl of 2 μg/ml CTLA4-hFc (CrownBio) in coating buffer (PBS, Hyclone, Cat No: SH30256.01B) overnight at 4° C. The wells were aspirated and non-specific binding sites were blocked by adding 200 μl of blocking buffer with 1% (w/v) of bovine serum albumin (BSA, Roche, Cat No: 738328) and incubating for 1 hour at 37° C. After the plates are washed three times with wash buffer (PBS with 0.05% (v/v) TWEEN-20™ (Sigma, Cat No: P1379)), 100 μl/well of a suitable dilutions of hybridoma supernatant in blocking buffer were added and incubated at room temperature for 1 hour. The plates were washed and incubated with 100 μl/well of Goat anti-Mouse IgG (H+L) (Thermo, Cat No: 31432) in blocking buffer for 60 min. After the plates were washed, 100 μl/well of substrate solution TMB (eBioscience, Cat No: 00-4201-56) was added and the plates were incubated for 2 min at room temperature. 100 μl/well of stop solution (2N H₂SO₄) was added to stop the reaction. The colorimetric signals were developed and read at 450 nm using a Auto Plate SpectraMax Plus (Supplier: Molecular Devices; Model: MNR0643; Software: SoftMax Pro v5.4). Through this method, hybridoma cell lines that produce antibodies highly specifically binding to the human CTLA4 protein were repeatedly selected. […]
# [7] = molecular target: T2, human CTLA4 on hCTLA4-293T cells; assay: FACS on hCTLA4-293T cells, purified murine antibody
# Experimental: as §4
# (§5) The purified hybridoma antibodies were characterized further based on ELISA and FACS analyses. The methods applied were similar to those described above in Example 2 except that in these cases, purified antibodies were used to measure EC50 and IC50.
# mouse CTLA4 = mouse CTLA4 (mouse, UniProt P09793 36-161, limits assumed); assay: protein based ELISA and other assays, not named
# human CTLA4-mFc [8] = molecular target: T4, human CTLA4-mFc; assay: ELISA blockage of biotinylated CD80-mFc binding to coated human CTLA4-mFc; remark: listed apart in the source
# Experimental: ELISA based ligand blockage analysis was conducted via blocking biotinylated human CD80-mFc from binding to human CTLA4-mFc. CTLA4-mFc antigen (CrownBio) was suspended in PBS (Hyclone, Cat No: SH30256.01B) buffer (2 μg/ml, 100 μl/well) and coated on the 96 well plate (Costar, Cat No: 9018) 4° C. overnight. Plates were washed 3 times using washing buffer: PBS+0.05% Tween 20 (Sigma, Cat No: P1379). 200 μl of blocking buffer (PBS+1% BSA (Roche, Cat No: 738328)) was added to each well, incubated at 37° C. for 1 hour, and washed 3 times. Various concentrations (suitable dilutions of hybridoma supernatant in PBS) of the anti-CTLA4 antibodies were added to the wells (100 μl/well) and incubated at 37° C. for 1 hour. Ligand was added (0.1 μg/ml CD80-mFc-biotin, 100 μl/well), incubated at 37° C. for 2 hours, and washed 3 times. Secondary antibody (Avidin HRP, eBioscience Cat No: E07418-1632, 1:500, 100 μl/well) was added, incubated at 37° C. for 0.5 hour, and washed 3 times. TMB (Sigma, Cat No: T0440, 100 μl/well) was added, and incubated for 3 min at room temperature. To stop the reaction, 2N H₂SO₄ (100 μl/well), was added. The colorimetric signals were developed and read at 450 nm using an Auto Plate SpectraMax Plus (Supplier: Molecular Devices; Model: MNR0643; Software: SoftMax Pro v5.4).
# The purified hybridoma antibodies were characterized further based on ELISA and FACS analyses. […]
# [9] = molecular target: T2, human CTLA4 on hCTLA4-293T cells; assay: FACS blockage of biotinylated human CD80 binding to hCTLA4-293T cells; remark: listed apart in the source
# Experimental: as §1, §5
# [10] = molecular target: T3, human CTLA4 (construct not stated); assay: SPR (Biacore 3000), antibody captured by anti-mouse Fc mAb, CTLA4 as analyte
# Experimental: as §3
Binder,EC50 (human CTLA4-hFc [1]),IC50 [2],Kd [3],koff [3],kon [3],EC50 [4],IC50 (human CTLA4-mFc [5]),EC50 (human CTLA4-hFc [6]),EC50 [7],binding result (mouse CTLA4),IC50 (human CTLA4-mFc [8]),IC50 [9],Kd [10],koff [10],kon [10]
B1,0.00201 µg/mL,0.435 µg/mL,0.441 nM,0.00013 s⁻¹,295000 M⁻¹ s⁻¹,2.33 µg/mL,0.295 µg/mL,–,–,–,–,–,–,–,–
B2,0.00293 µg/mL,0.0253 µg/mL,0.273 nM,0.000113 s⁻¹,414000 M⁻¹ s⁻¹,5.28 µg/mL,0.285 µg/mL,–,–,–,–,–,–,–,–
B3,–,–,–,–,–,–,–,0.0127 µg/mL,0.305 µg/mL,no binding,0.594 µg/mL,0.511 µg/mL,0.219 nM,0.000152 s⁻¹,693000 M⁻¹ s⁻¹
B4,–,–,–,–,–,–,–,0.025 µg/mL,1.18 µg/mL,no binding,0.526 µg/mL,0.526 µg/mL,0.409 nM,0.000244 s⁻¹,598000 M⁻¹ s⁻¹
